The values below come from IntAct's records for PubMed 22265413.

The chains are these.
B1: Mixed lineage kinase domain-like protein (Homo sapiens), Q8NB16 (parent)
chain: MENLKHIITLGQVIHKRCEEMKYCKKQCRRLGHRVLGLIKPLEMLQDQGKRSVPSEKLTTAMNRFKAALEEANGEIEKFSNRSNICRFLTASQDKILFKDVNRKLSDVWKELSLLLQVEQRMPVSPISQGASWAQEDQQDADEDRRAFQMLRRDNEKIEASLRRLEINMKEIKETLRQYLPPKCMQEIPQEQIKEIKKEQLSGSPWILLRENEVSTLYKGEYHRAPVAIKVFKKLQAGSIAIVRQTFNKEIKTMKKFESPNILRIFGICIDETVTPPQFSIVMEYCELGTLRELLDREKDLTLGKRMVLVLGAARGLYRLHHSEAPELHGKIRSSNFLVTQGYQVKLAGFELRKTQTSMSLGTTREKTDRVKSTAYLSPQELEDVFYQYDVKSEIYSFGIVLWEIATGDIPFQGCNSEKIRKLVAVKRQQEPLGEDCPSELREIIDECRAHDPSVRPSVDEILKKLSTFSK
B2: Receptor-interacting serine/threonine-protein kinase 3 (Homo sapiens), Q9Y572 (parent)
chain: MSCVKLWPSGAPAPLVSIEELENQELVGKGGFGTVFRAQHRKWGYDVAVKIVNSKAISREVKAMASLDNEFVLRLEGVIEKVNWDQDPKPALVTKFMENGSLSGLLQSQCPRPWPLLCRLLKEVVLGMFYLHDQNPVLLHRDLKPSNVLLDPELHVKLADFGLSTFQGGSQSGTGSGEPGGTLGYLAPELFVNVNRKASTASDVYSFGILMWAVLAGREVELPTEPSLVYEAVCNRQNRPSLAELPQAGPETPGLEGLKELMQLCWSSEPKDRPSFQECLPKTDEVFQMVENNMNAAVSTVKDFLSQLRSSNRRFSIPESGQGGTEMDGFRRTIENQHSRNDVMVSEWLNKLNLEEPPSSVPKKCPSLTKRSRAQEEQVPQAWTAGTSSDSMAQPPQTPETSTFRNQMPSPTSTGTPSPGPRGNQGAERQGMNWSCRTPEPNPVTGRPLVNIYNCSGVQVGDNNYLTMQQTTALPTWGLAPSGKGRGLQHPPPVGSQEGPKDPEAWSRPQGWYNHSGK
partner: B1 chain

The first assay covers variants of B1. To be noted: with ripk3_human RIPK3, Q9Y572.
Take MENLKHIITLGQVIHKRCEEMKYCKKQCRRLGHRVLGLIKPLEMLQDQGKRSVPSEKLTTAMNRFKAALEEANGEIEKFSNRSNICRFLTASQDKILFKDVNRKLSDVWKELSLLLQVEQRMPVSPISQGASWAQEDQQDADEDRRAFQMLRRDNEKIEASLRRLEINMKEIKETLRQYLPPKCMQEIPQEQIKEIKKEQLSGSPWILLRENEVSTLYKGEYHRAPVAIKVFKKLQAGSIAIVRQTFNKEIKTMKKFESPNILRIFGICIDETVTPPQFSIVMEYCELGTLRELLDREKDLTLGKRMVLVLGAARGLYRLHHSEAPELHGKIRSSNFLVTQGYQVKLAGFELRKTQAAMSLGTTREKTDRVKSTAYLSPQELEDVFYQYDVKSEIYSFGIVLWEIATGDIPFQGCNSEKIRKLVAVKRQQEPLGEDCPSELREIIDECRAHDPSVRPSVDEILKKLSTFSK [T357A;S358A]: the “effect of a mutation on the interaction” value is “disrupting interaction”. Consider MENLKHIITLGQVIHKRCEEMKYCKKQCRRLGHRVLGLIKPLEMLQDQGKRSVPSEKLTTAMNRFKAALEEANGEIEKFSNRSNICRFLTASQDKILFKDVNRKLSDVWKELSLLLQVEQRMPVSPISQGASWAQEDQQDADEDRRAFQMLRRDNEKIEASLRRLEINMKEIKETLRQYLPPKCMQEIPQEQIKEIKKEQLSGSPWILLRENEVSTLYKGEYHRAPVAIKVFKKLQAGSIAIVRQTFNKEIKTMKKFESPNILRIFGICIDETVTPPQFSIVMEYCELGTLRELLDREKDLTLGKRMVLVLGAARGLYRLHHSEAPELHGKIRSSNFLVTQGYQVKLAGFELRKTQEDMSLGTTREKTDRVKSTAYLSPQELEDVFYQYDVKSEIYSFGIVLWEIATGDIPFQGCNSEKIRKLVAVKRQQEPLGEDCPSELREIIDECRAHDPSVRPSVDEILKKLSTFSK [T357E;S358D], for which the “effect of a mutation on the interaction” value is recorded as “decreasing interaction”.

The variants in another assay derive from B2. To be noted: with mlkl_human MLKL.
As to S227A, the “effect of a mutation on the interaction” value is “disrupting interaction”. For the variant D142N, the “effect of a mutation on the interaction” value is “disrupting interaction”.

The variants in the next assay derive from B2. To be noted: with mlkl_human MLKL. This is another data set of the same source.
In the case of K50A, the “effect of a mutation on the interaction” value was “decreasing interaction”.
